Target: 6xHis-FoxR^peri-T192A (purified whole periplasmic region of FoxR with T192A) (P. aeruginosa)
Assay: AUC; sedimentation velocity titration: FoxR^peri fixed at 10 μm, FoxA^SD at 1, 2, 5, 10, 20, 40 and 80 μm; sw isotherm (absorbance and interference) globally fitted in SEDPHAT to an A+B <-> AB model; 8°C, 20 mM Tris pH 8.3, 500 mM NaCl, 1 mM DTT, 3% glycerol

6xHis-FoxA^SD (purified signaling domain of FoxA) (from UniProt Q9I116 53-820) (domain or fragment)
Kd: 4.3 µM
stoichiometry N: 1
